The record followed here is patent US20240368275A1 (ELPIS BIOPHARMACEUTICALS, published 2024).

Assay [1] concerns the target T1, full-length human Nectin4 with C-terminal flag and Myc tags on CHO cells (human, UniProt Q96NY8 32-510).
T1 sequence (looked up): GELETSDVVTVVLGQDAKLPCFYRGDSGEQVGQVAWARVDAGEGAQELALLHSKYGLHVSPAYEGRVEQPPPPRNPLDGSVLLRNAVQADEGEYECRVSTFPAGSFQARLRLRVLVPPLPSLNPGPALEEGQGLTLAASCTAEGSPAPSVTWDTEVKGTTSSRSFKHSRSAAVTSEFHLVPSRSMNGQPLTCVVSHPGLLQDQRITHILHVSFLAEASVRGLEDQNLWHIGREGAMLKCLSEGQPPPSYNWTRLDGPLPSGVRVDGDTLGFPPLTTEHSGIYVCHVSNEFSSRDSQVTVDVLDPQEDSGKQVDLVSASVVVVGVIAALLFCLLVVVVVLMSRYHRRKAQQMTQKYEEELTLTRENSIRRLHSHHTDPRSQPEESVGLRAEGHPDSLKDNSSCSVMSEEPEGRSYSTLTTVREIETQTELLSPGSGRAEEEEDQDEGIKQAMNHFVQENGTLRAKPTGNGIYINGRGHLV
Nature of the assay: cell-based or functional assay.

For assay [2], the target named is T2, mouse nectin4 protein (mouse, UniProt Q8R007 31-347, limits assumed).
T2 sequence (looked up): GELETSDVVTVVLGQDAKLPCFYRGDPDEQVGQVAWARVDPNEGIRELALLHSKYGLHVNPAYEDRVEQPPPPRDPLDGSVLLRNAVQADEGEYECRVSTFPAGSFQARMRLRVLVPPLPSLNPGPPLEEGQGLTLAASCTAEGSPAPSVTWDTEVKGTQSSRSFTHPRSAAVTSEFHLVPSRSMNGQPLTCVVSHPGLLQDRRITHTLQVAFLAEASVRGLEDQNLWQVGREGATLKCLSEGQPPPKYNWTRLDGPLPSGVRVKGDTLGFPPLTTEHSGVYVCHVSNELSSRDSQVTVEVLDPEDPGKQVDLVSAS
Nature of the assay: ELISA, coated mouse nectin4, IgG titrated, anti-hFc HRP. (ELISA stands for enzyme-linked immunosorbent assay.)

Assay [3] deals with monkey nectin4 protein (monkey). Nature of the assay: ELISA, coated monkey nectin4, IgG titrated, anti-hFc HRP.
Assay [4] has as its target T3, human Nectin4-HIS tagged recombinant protein (human, UniProt Q96NY8 32-349).
T3 construct: also called hNectin4-HIS; Nectin4 HIS tagged protein; not shown: HIS tag
T3 sequence (looked up): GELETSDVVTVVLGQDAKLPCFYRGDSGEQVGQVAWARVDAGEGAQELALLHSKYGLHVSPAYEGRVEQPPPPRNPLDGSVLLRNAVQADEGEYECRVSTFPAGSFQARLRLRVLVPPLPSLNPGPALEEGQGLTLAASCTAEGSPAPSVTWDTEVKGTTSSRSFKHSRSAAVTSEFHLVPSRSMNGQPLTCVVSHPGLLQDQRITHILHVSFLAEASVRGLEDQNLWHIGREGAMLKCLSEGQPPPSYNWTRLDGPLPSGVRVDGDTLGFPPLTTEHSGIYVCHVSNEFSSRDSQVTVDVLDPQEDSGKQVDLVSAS
Nature of the assay: ELISA, coated human Nectin4-HIS, IgG titrated, anti-hFc HRP. The procedure: An ELISA assay was developed to determine the EC₅₀ of exemplary anti-Nectin4 IgG antibodies. Briefly, 384 well plate was immobilized with human Nectin4-HIS tagged recombinant protein at final concentration of 2 ug/mL in 1×PBS in total volume of 25 uL per well. The plate was incubated overnight at 4° C. followed by blocking with 80 uL of superblock per well for 1 hour. Titration of purified anti-Nectin4 IgG starting at 200 nM 2-fold serial dilution, 25 uL was added to human Nectin4 immobilized wells and incubated for 1 hour with shaking. The Nectin4 binding was detected by adding 25 uL of anti-hFc HRP diluted at 1:5000 in 1×PBST. In between each step, the plate was washed 3 times with 1×PBST in a plate washer. The plate was then developed with 20 ul of TMB substrate for 5 mins and stopped by adding 20 ul of 2N sulfuric acid. The plate was read at OD450 nm Biotek plate reader and then plotted in Prism 8.1 software.

Assay [5] has as its target T1, full-length human Nectin4 with …. Nature of the assay: flow cytometry, IgG on Nectin4/CHO cells, anti-hFc Alexa fluor 647. How it is done: 200 nM of purified anti-Nectin4 IgG antibodies were diluted in full medium and incubated with Nectin4/CHO and CHO cells in 96 wells plate on ice for 1 hour. Cells were spun down at 1200 rpm for 5 minutes at 4° C. to remove primary antibodies. Cells were then washed once with 200 uL of full medium per well. Samples were detected with anti-hFc Alexa fluor 647 by adding 100 uL of diluted secondary antibody and incubated at 4° C. for 30 minutes in the dark. Samples were spun down at 1200 rpm for 5 minutes at 4° C. and washed twice with 200 uL of 1×PBS per well. Reconstituted samples in 200 uL of 1×PBS and read on Attune NxT cytometer. Analysis was done by Attune NxT software plotting the overlay histogram of […] proteins binding onto both negative and target cell lines.

The target in assay [6] is T3, human Nectin4-HIS tagged recombinant …. In words: SPR Biacore T200, IgG captured on Protein A chip, hNectin4-HIS injected. The procedure:
Kinetic analysis of anti-Nectin4 IgG has been assessed by the SPR technology with Biacore T200. The assay was run with Biacore T200 control software version 2.0. For each cycle, 1 ug/mL of anti-hNectin4-IgG was captured for 60 seconds at flow rate of 10 ul/min on flow cell 2 in 1×HBSP buffer on Protein A sensor chip. 2-fold serial hNectin4-HIS tagged protein was injected onto both reference flow cell 1 and anti-Nectin4 IgG captured flow cell 2 for 150 seconds at flow rate of 30 ul/mins followed by wash for 300 seconds. The flow cells were then regenerated with Glycine pH2 for 60 seconds at flow rate of 30 ul/mins. 8 concentration points from 100-0 nM was assayed per anti-Nectin4 IgG in a 96 well plate. The kinetics of Anti-Nectin4 IgG binding to Nectin4 protein was analyzed with Biacore T200 evaluation software version 3.0. The specific binding response unit was derived from subtraction of binding to reference flow cell 1 from antibody captured flow cell 2.
A general note: SPR reads the build-up and loss of mass on a sensor chip optically.

Assay [7] deals with T4, CD3 on Jurkat cells (UniProt P07766 23-207, limits assumed). In words: cell-based or functional assay.
T4 sequence (P07766 23-207 limits assumed): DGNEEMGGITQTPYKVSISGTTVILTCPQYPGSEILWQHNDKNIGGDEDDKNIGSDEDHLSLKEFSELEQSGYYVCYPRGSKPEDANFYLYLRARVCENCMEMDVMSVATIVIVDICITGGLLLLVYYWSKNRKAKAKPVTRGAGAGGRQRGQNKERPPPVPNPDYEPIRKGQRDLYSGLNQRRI
Assay [8] deals with T4, CD3 on Jurkat cells. In words: flow cytometry on Jurkat cells. The procedure:
Jurkat cells were plated at 100,000 cells/well in a 96-well plate with 50 μL of full media. Anti-Nectin4/CD3 antibodies were 3-fold serial titrated from 20 nM. 50 μL was added to the cells and incubated for 1 hours at room temperature with shaking. Samples were washed one time with flow buffer. […] Samples were washed once with flow buffer. Samples were stained with 100 uL Zombie Fixable Viability Dyes at 1:800 dilution per well and incubated in dark at room temperature for 30 mins. Samples were spun down at 1300 rpm for 5 minutes and washed once with 200 uL flow buffer. Reconstituted samples in 200 uL of flow buffer and read on Attune NxT cytometer. EC50 values for CD3 binding were calculated using Prism 8.1 software.
Similar methods of above mentioned were used to measure the binding activities of anti-Nectin4/CD3/IL-2 complexes to CHO/Nectin4 and Jurkat cells, respectively.
In general terms: In flow cytometry, cells or beads pass a laser one at a time.

Assay [9] addresses T3, human Nectin4-HIS tagged recombinant …. In words: ELISA, coated human Nectin4-HIS, complex titrated, anti-hFc HRP. How it is done:
ELISA was performed to determine the EC₅₀ of anti-Nectin4/CD3/IL2 protein complexes. Briefly, 384 well plate was immobilized with human Nectin4-HIS tagged recombinant protein at final concentration of 2 ug/mL in 1×PBS in total volume of 25 uL per well. The plate was incubated overnight at 4° C. followed by blocking with 80 uL of superblock per well for 1 hour. […] The Nectin4 binding was detected by adding 25 uL of anti-hFc HRP diluted at 1:10000 in 1×PBST. In between each step, the plate was washed 3 times with […] in a plate washer. The plate was then developed with 20 ul of TMB substrate for 5 mins and stopped by adding 20 ul of 2N sulfuric acid. The plate was read at OD450 nm Biotek plate reader and then plotted in Prism 8.1 software. Similar SPR methods were applied to measure the binding of the protein complexes to Nectin4, CD3E and IL2 receptors.

B1: 2020EP034-E01 IgG (EP296/EP286) (antibody, V domains shown)
VH: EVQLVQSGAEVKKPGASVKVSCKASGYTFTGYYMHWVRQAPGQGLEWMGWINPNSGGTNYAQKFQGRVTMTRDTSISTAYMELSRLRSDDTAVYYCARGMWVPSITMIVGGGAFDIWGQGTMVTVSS
VL: DVVMTQSPLSLPVTPGEPASMSCRSSESLLHRNGFNYLDWYVQRPGQSPKLLIYMGSYRASGVPDRFSGRGSGTDFALKISRVEAEDVGVYYCMQALQSPPLYTFGPGTKLEIKR
notes: Human IgG1
As to B1, in assay [1], the “ADCC Bioreporter assay EC50” value was determined as 1.43 nM. Besides, the concentration giving a half-maximal response (EC50) in assay [2] turned out to be 0.037 nM; in assay [3], 0.043 nM; in assay [4], 0.035 nM; in assay [5], 0.017 nM. Moreover, the Kd in assay [6] was 11 nM.

B2: EP369/371/289 anti-Nectin4/CD3/IL2 protein complex (bispecific antibody)
chain: not shown
heavy: not shown
light: QAVVTQPPSVSVAPGKTATITCGGNNIGSKGVHWYQQKPGQAPVLVIYYDTDRPSGIPERLSGSNSGNTATLTISRVEAGDEADYYCQVWDSSSDHPVFGGGTKLTVLGQPKANPTVTLFPPSSEELQANKATLVCLISDFYPGAVTVAWKADGSPVKAGVETTKPSKQSNNKYAASSYLSLTPEQWKSHRSYSCQVTHEGSTVEKTVAPTECS
notes: Anti-CD3 sp34 scFv-Fc knob (EP369), B09 heavy chain hole with wild-type IL2 at the C-terminus (EP371), light chain EP289; also called EP369/EP371/EP289
In the case of B2, the “Jurkat Cell Activation Activity, NFAT reporter EC50” value in assay [7] was 0.009 nM. For the same molecule, the EC50 turned out to be 1.65 nM in assay [8] and 0.016 nM in [9].

B3: EP369/379/289 anti-Nectin4/CD3/IL2 protein complex (bispecific antibody)
chain: not shown
heavy: EVQLVQSGAEVKKPGASVKVSCKASGYTFTGYYMHWVRQAPGQGLEWMGRINPNSGGTNYAQKFQGRVTMTRDTSISTAYMELSGLRSDDTAVYFCARVTYNIGWYIDYWGQGTLVTVSSASTKGPSVFPLAPSSKSTSGGTAALGCLVKDYFPEPVTVSWNSGALTSGVHTFPAVLQSSGLYSLSSVVTVPSSSLGTQTYICNVNHKPSNTKVDKKVEPKSCDKTHTCPPCPAPEAAGGPSVFLFPPKPKDTLMISRTPEVTCVVVDVSHEDPEVKFNWYVDGVEVHNAKTKPREEQYNSTYRVVSVLTVLHQDWLNGKEYKCKVSNKALGAPIEKTISKAKGQPREPQVCTLPPSRDELTKNQVSLSCAVKGFYPSDIAVEWESNGQPENNYKTTPPVLDSDGSFKLVSKLTVDKSRWQQGNVFSCSVMHEALHNHYTQKSLSLSPGKGGGGSGGGGSGGGGSGGGGSAPASSSTKKTQLQLEHLLLDLQMILNGINNYKNPLLTDMLTRKFYMPKKATELKHLQCLEEELKPLEEVLNLAQSKNFHLRPRDLISNINVIVLELKGSETTFMCEYADETATIVEFLNRWITFSQSIISTLT
light: QAVVTQPPSVSVAPGKTATITCGGNNIGSKGVHWYQQKPGQAPVLVIYYDTDRPSGIPERLSGSNSGNTATLTISRVEAGDEADYYCQVWDSSSDHPVFGGGTKLTVLGQPKANPTVTLFPPSSEELQANKATLVCLISDFYPGAVTVAWKADGSPVKAGVETTKPSKQSNNKYAASSYLSLTPEQWKSHRSYSCQVTHEGSTVEKTVAPTECS
notes: Anti-CD3 sp34 scFv-Fc knob (EP369), B09 heavy chain hole with K35L R38D F42R IL2 at the C-terminus (EP379), light chain EP289; also called EP369/EP379/EP289
With B3, the “Jurkat Cell Activation Activity, NFAT reporter EC50” value in [7] was 0.044 nM. Also, the EC50 was determined as 1.04 nM in assay [8] and 0.042 nM in assay [9].

The EC50 is the concentration needed to bring the measured effect to its halfway point. Broadly, the Kd is the concentration at which binding is half-saturated.
